Common to all, as to experiment: flow cytometry, CHO-S cells expressing the target
A general note: In flow cytometry, cells or beads pass a laser one at a time.

Test [1] concerns the target human SIGLEC15 on CHO-S-hSIGLEC15 cells (human) (UniProt Q6ZMC9).
The target of test [2] is Macaca fascicularis (crab-eating macaque) SIGLEC15 on CHO-S-fasSIGLEC15 cells (Macaca fascicularis (crab-eating macaque)).
Test [3] deals with mouse SIGLEC15 on CHO-S-mSIGLEC15 cells (mouse).
The target of test [4] is dog SIGLEC15 on CHO-S-dSIGLEC15 cells (dog).
dog SIGLEC15 on CHO-S-dSIGLEC15 cells (dog), sequence (chain, as listed by the source limits assumed): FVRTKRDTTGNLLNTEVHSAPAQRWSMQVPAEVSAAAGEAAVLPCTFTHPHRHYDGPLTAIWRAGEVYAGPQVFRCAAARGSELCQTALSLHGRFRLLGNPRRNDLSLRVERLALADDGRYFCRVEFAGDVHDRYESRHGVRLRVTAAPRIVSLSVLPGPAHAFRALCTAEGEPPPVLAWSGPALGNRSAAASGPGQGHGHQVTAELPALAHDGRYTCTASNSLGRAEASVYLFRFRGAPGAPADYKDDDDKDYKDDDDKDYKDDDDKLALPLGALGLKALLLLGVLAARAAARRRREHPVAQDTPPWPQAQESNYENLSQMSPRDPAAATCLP

human SIGLEC15 on CHO-S-hSIGLEC15 cells (human), sequence (Q6ZMC9 20-328 limits assumed): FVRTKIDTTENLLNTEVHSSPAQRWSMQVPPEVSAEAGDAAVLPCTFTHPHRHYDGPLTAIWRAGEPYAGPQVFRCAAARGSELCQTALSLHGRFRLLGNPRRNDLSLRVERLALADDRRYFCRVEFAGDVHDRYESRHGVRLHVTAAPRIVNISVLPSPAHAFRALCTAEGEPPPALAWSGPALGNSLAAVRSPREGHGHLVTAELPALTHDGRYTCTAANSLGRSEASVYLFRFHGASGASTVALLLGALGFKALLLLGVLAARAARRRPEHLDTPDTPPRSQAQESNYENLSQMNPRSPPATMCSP
mouse SIGLEC15 on CHO-S-mSIGLEC15 cells (mouse), sequence (chain, as listed by the source limits assumed): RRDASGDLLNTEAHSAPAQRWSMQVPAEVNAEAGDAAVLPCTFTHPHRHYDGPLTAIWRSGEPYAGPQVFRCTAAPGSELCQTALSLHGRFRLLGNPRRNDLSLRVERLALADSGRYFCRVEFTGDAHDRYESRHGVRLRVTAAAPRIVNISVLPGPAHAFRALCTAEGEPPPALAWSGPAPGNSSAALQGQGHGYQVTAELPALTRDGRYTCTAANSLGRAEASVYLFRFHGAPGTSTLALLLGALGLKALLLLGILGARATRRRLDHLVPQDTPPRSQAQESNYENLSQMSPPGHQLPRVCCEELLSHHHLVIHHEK

Turning to NC, the Percentage of Positive Cells in test [1] is 0.1%; in test [2], 0.2%; in test [3] it was 0.1%; in test [4], 0.6%.

Take NC + secondary antibody: the Percentage of Positive Cells was found to be 0% in test [1], 0% in test [2], 0.3% in test [3] and 0.7% in test [4].

For the origin of these results see patent publication US20250361296A1.
